According to patent US10172951B2, “Dendrimer based nanodevices for therapeutic and imaging purposes” (priority 2009, dated 2019):

Assays:
Solubility in PBS/H2O = assay type: physicochemical
[1] = Cysteine triggered NAC release from PAMAM-S-S-NAC; assay type: physicochemical; details: pH 7.4
Protocol: (§1) Appropriate amounts of PAMAM-S—S-NAC conjugate were dissolved in release media (Citrate or PBS buffers) to form a solution of 1 mg/ml PAMAM-S—S-NAC. One of the thiol containing molecules (GSH, Cys or BSA) was added to the conjugates to form 10 mM, 2 mM, 0.5 mM 0.1 mM or 2 μM overall thiol group concentrations and to initiate the release of NAC. All samples were run as triplicates for statistical analysis.

BV-2 cells = assay: ROS assay, percent reduction in H2O2 in LPS-treated BV-2 cells (Example 19); assay type: cell-based, mouse; details: for reduction in H2O2 levels: 0.5 mM NAC (equivalent), co-treatment with LPS
Protocol: Cells were treated with lipopolysaccharide (LPS) to induce the production of ROS. The cells were treated with LPS (100 ng/ml) and either NAC, PAMAM-S—S-NAC, or free PAMAM-NH2 dendrimers at appropriate concentrations to study the efficacy of the conjugates for reducing the ROS concentrations. In order to quantify the efficacy of conjugates, H2O2 released from BV-2 cells (ROS) was measured using the Amplex Red Hydrogen Peroxide/Peroxidase Assay Kit using previously established procedures.

[2] = test system: Mouse microglial cell line (BV-2); assay: In vitro cytotoxicity, MTT assay (Example 19)
Excerpt: In vitro cytotoxicity of the conjugate, dendrimer and NAC, at conditions similar to that used in the efficacy assays, was investigated by MTT assay. Mouse microglial cell line (BV-2) was obtained from Children's Hospital of Michigan Cell Culture Facility. These cells were used because the eventual in vivo applications seek to target microglial cells that become activated as a result of neuroinflammation.
The lipopolysaccharide (LPS) was used to activate the cells for the ROS assay. For the cytotoxicity study, the LPS treatment was continuous for 24 hours. For both groups, the LPS concentration used was 100 ng/ml. Three concentrations of NAC were studied: 0.5 mM, 2 mM and 8 mM. For the conjugate assays, the concentrations used corresponded to equivalent NAC doses of the free drug treatment groups. Similarly, the dendrimer assays were run by using dendrimer concentrations that were equivalent to conjugate treatments. Control groups included cells receiving only LPS and no other treatment and cells with no LPS or other treatment. The proportion of viable cells in the treated group was compared to that of negative control. The cell viability is expressed as mean±SD of three samples per group, and assessed by t-test.

[3] = GSH triggered NAC release from PAMAM dendrimer-NAC conjugates (RP-HPLC); assay type: physicochemical; details: for amount released: over 20 hours
Protocol: as §1
As control samples, conjugates were analyzed in both release media in the absence of reducing agents. The solutions were kept at 37° C. and stirred continuously. At predetermined time intervals, […] of samples were withdrawn and immediately analyzed with RP-HPLC and the concentrations of analytes were determined by using appropriate calibrations prepared under same conditions.
Dendrimer NAC conjugates were analyzed for their drug release mechanism and kinetics in the presence of GSH, Cys and BSA. Buffer solutions with pH 5 (Citrate Buffer) and pH 7.4 (Phosphate Buffered Saline) containing various concentrations of these thiol containing moieties were used in release studies.
All GSH concentrations studied were between average plasma (2 μM) and intracellular (2-10 mM) GSH levels. Various GSH concentrations were used in order to determine the GSH dependent release kinetics of the conjugate. The conjugate solutions contained 730 μM NAC in the conjugated form (1 mg/ml PAMAM-S—S-NAC) at the beginning of the release studies. GSH concentration in the release media was compared to the conjugated NAC concentrations in the release solutions for analysis of the release kinetics and mechanism.
The release of NAC from the conjugates was investigated in the presence of GSH at intracellular and extracellular concentrations. It was assumed that the release of NAC would occur by the disulfide exchange reaction. GSH and its oxidized form (GSSG) are responsible for forming the intracellular redox buffer. Intracellularly, GSH takes the role of attacking thiolate moiety and gets oxidized in the process while cleaving the existing disulfide bonds.
The conjugates were also analyzed in the absence of GSH to verify the stability of the disulfide linkage at physiological pH. […] The extent of the release of drug from both dendrimer-NAC conjugates was also analyzed at plasma and intracellular GSH concentrations. The conjugates and the GSH in required amounts were added to PBS solution, and the solution was analyzed at various time intervals by HPLC for up to 17 hours. UV absorbance peak areas were used to determine the concentrations of each of the species in the solution, based on appropriate calibration curves.

[4] = Stability of conjugate in bovine serum albumin (BSA) solution; assay type: physicochemical; details: pH 7.4 and pH 5, over 24 hours
Excerpt: To investigate the reducing activity of Cys in protein structures, bovine serum albumin (BSA) was chosen for release studies since it is the most abundant protein in plasma. Additionally, for intravenous administration of conjugates, it is important for the drug to stay intact with the carrier until the conjugate reaches its final destination within the body. Thus the release characteristic in the presence of albumin is crucial for intravenous applications. The release studies in the presence of BSA were carried out at pH 7.4 and pH 5 as well. The BSA concentrations used for the studies were adjusted so that the overall Cys concentrations in BSA release media were the same as the GSH and Cys release studies, discussed earlier. In addition to the five thiol concentrations studied, the stability of the conjugate at plasma BSA concentration was also analyzed.

[5] = 10 mM GSH, PBS pH 7.4, within 1 hour
[6] = 10 mM GSH, after the initial 1 hour release (time not given)

Which “Solubility in PBS/H2O” value (Solubility in PBS/H2O) does the source give for “PAMAM-NH—CO-Ethyl-S—S-NAC [PAMAM-S—S-NAC]” here?
Its value is “Highly”.

And the “rate of NAC release with Cys compared to GSH” value [1]?
The value was “slightly faster rates”.

And the “reduction in H2O2 levels” value (BV-2 cells; 24 hours)?
The value was 72%.

And the “reduction in H2O2 levels” value (BV-2 cells; 72 hours)?
The value was 101%.

What about the “reduction in effective dose” value (BV-2 cells; 3 hours of treatment, lower drug doses (0.5 mM and 2 mM)) of the same substance?
The value was at most 4 fold.

What about the “reduction of effective dose of NAC” value (BV-2 cells; continuous treatment, 0.5 mM conjugate vs 8 mM free NAC) of the same substance?
Its value is “about 16 times”.

And the cell survival rate ([2]; highest dose)?
The cell survival rate was 84%.

And the cell survival rate ([2]; lowest concentration of the conjugate)?
Its cell survival rate is “greater than 95%”.

And the “NAC payload in GS-S-NAC (NAC-GSH) form” value [3, 5]?
Its value is 19%.

What about the “NAC payload released in free form” value [3, 5] of the same substance?
Its value is 47%.

And the “total NAC release” value [3, 5]?
Its value is 66%.

What about the “NAC payload as GS-S-NAC” value [3, 6] of the same substance?
The value was 14%.

And the “NAC payload in free form” value [3, 6]?
The value was 41%.

What about the NAC release ([3]; PBS buffer without GSH, 17 hours) of the same substance?
Its NAC release is “did not release any of the NAC they carried”.

And the “duration of sustained drug release” value ([3]; lysosomal pH)?
The value was “about 8 hours”.

And the NAC release ([3]; pH 5, 2 μM GSH, within 20 hours)?
Its NAC release is “no significant amount NAC was released”.

And the amount released ([3]; pH 5, 100 μM GSH)?
The amount released was 15%.

What about the amount released ([3]; pH 5, 500 μM GSH) of the same substance?
The amount released was 58%.

What about the “time to nearly completed release” value ([3]; pH 5, 2000 μM GSH) of the same substance?
Its value is “up to 20 hours”.

What about the “time to nearly completed release” value ([3]; pH 5, 10,000 μM GSH) of the same substance?
Its value is at most 7 h.

What about the “maximum extent of payload release” value ([3]; pH 5.0, intracellular GSH concentrations) of the same substance?
The value was “about 90%”.

What about the NAC payload released ([3]; pH 5, intracellular GSH concentrations (excess), within 20 hours) of the same substance?
The NAC payload released was 95%.

What about the NAC release ([3]; pH 5, no GSH) of the same substance?
Its NAC release is “did not release any NAC”.

What about the NAC release ([3]; pH 7.4, 2 μM GSH) of the same substance?
Its NAC release is “no detectable level of NAC released”.

What about the NAC release ([3]; pH 7.4, 100 μM GSH) of the same substance?
Its NAC release is 6%.

And the NAC release ([3]; pH 7.4, 500 μM GSH)?
The NAC release was 31%.

And the payload released ([3]; pH 7.4, 2000 μM GSH)?
The payload released was 60%.

And the payload released ([3]; pH 7.4, 10,000 μM GSH)?
The payload released was 66%.

What about the NAC release ([3]; pH 7.4, absence of GSH, within 3 days) of the same substance?
The NAC release was “did not release any NAC”.

What about the “maximum extent of payload release” value ([3]; pH 7.4, intracellular GSH concentrations) of the same substance?
The value was “approximately 65%”.

And the drug released ([3]; pH 7.4, intracellular GSH levels, in less than two hours)?
The drug released was “More than 60%”.

What about the “NAC payload found as GS-S-NAC or NAC-NAC” value ([3]; plasma GSH concentration (2 μM)) of the same substance?
The value was 1%.

And the “release of free NAC” value ([3]; plasma GSH concentration (2 μM), 17 hours)?
Its value is “did not release any detectable levels of free NAC”.

What about the “NAC release in presence of BSA” value [4] of the same substance?
The value was “no NAC being released”.
